# Assay results reported in patent US20140072613A1 (published 2014).
# T1: NLK(h) (human, UniProt Q9UBE8 1-527, limits assumed)
# T1 sequence (looked up): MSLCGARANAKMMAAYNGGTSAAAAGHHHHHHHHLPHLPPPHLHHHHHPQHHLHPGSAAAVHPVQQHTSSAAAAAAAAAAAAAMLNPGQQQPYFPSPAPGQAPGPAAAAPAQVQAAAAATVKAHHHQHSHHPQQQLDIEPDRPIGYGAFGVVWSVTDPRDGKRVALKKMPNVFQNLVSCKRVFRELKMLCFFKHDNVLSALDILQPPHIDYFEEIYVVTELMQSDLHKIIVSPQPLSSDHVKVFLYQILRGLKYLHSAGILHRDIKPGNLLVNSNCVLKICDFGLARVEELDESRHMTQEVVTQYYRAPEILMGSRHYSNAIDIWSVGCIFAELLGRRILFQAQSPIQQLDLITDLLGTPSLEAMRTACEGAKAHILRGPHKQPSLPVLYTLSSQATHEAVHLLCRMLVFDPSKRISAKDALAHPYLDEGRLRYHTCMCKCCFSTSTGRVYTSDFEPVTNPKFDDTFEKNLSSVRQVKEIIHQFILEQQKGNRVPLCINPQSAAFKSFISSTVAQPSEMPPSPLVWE
# T2: ARK5(h) (human, UniProt O60285 1-661, limits assumed)
# T2 sequence (looked up): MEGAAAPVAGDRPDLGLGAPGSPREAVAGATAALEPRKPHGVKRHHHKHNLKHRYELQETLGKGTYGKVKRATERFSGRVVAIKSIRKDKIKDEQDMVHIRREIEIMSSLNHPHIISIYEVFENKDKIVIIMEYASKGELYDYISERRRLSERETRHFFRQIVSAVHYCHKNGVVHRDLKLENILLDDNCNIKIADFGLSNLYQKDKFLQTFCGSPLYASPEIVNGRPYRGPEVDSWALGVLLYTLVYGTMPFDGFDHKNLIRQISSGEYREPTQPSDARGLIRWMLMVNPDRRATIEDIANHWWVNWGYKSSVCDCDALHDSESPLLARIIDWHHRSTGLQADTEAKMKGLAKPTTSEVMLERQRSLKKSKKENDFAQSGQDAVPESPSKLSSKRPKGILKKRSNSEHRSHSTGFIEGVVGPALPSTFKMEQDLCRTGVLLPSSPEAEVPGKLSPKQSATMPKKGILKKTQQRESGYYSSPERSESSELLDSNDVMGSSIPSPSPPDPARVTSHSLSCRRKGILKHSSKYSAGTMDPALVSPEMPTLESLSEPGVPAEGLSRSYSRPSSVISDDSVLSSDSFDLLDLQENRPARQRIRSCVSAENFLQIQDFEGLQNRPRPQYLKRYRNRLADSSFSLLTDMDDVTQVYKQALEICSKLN
# T3: LKB1(h) (human, UniProt Q15831 1-433)
# T3 sequence (looked up): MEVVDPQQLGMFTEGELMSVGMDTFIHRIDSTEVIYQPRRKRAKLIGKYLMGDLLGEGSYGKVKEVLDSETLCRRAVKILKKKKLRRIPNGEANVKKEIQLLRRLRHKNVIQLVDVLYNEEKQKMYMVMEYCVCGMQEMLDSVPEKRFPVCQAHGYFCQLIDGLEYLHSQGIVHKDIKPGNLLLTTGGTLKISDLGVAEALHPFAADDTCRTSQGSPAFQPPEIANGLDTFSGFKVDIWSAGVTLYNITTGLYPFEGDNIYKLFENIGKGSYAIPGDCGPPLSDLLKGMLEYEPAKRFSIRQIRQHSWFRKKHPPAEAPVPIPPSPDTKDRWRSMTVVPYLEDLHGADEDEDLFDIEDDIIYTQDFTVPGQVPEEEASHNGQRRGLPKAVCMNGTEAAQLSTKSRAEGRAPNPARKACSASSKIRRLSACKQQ
# T4: GRK7(h) (human, UniProt Q8WTQ7 1-553)
# T4 sequence (looked up): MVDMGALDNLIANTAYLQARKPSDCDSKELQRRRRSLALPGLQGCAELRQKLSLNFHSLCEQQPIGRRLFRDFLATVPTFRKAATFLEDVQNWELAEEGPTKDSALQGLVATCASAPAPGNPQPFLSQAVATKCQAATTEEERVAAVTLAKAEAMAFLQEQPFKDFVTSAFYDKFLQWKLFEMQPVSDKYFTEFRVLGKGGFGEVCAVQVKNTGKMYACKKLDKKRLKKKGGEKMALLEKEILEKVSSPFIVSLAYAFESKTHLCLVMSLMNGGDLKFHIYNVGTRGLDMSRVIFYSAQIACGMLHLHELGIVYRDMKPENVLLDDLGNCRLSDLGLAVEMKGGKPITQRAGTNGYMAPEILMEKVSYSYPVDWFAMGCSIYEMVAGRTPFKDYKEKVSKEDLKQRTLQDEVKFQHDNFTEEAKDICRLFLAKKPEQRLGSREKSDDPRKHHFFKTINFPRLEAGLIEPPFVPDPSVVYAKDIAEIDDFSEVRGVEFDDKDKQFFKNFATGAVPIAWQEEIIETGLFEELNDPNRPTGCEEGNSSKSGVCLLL
# B1: MMI-0300 (peptide)
# peptide: FAKLAARLYRKALARQLGVAA
# B2: MMI-0400 (peptide)
# peptide: KAFAKLAARLYRKALARQLGVAA
# Legend:
# Experiment in all cases: cell-based or functional assay
# NLK(h) = molecular target: T1, NLK(h)
# PAK2(h) = PAK2(h) (human, UniProt Q13177 1-524)
# ARK5(h) = molecular target: T2, ARK5(h)
# EGFR(h) = EGFR(h) (human, UniProt P00533 696-1210, limits assumed)
# MARK1(h) = MARK1(h) (human, UniProt Q9P0L2 1-795, limits assumed)
# LKB1(h) = molecular target: T3, LKB1(h)
# GRK7(h) = molecular target: T4, GRK7(h)
# PKCα(h) = PKCα(h) (human, UniProt P17252 1-672)
# NEK7(h) = NEK7(h) (human, UniProt Q8TDX7 1-302)
# NEK7(h), sequence (Q8TDX7 whole entry): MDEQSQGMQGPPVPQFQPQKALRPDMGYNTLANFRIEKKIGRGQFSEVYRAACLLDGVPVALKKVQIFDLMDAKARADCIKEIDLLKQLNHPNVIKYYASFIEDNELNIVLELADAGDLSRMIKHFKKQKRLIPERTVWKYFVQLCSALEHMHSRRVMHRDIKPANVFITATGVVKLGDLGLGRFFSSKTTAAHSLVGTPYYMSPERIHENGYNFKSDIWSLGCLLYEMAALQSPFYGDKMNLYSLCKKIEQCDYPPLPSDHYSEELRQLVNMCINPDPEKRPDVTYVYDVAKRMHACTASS
# MARK1(h), sequence (Q9P0L2 whole entry): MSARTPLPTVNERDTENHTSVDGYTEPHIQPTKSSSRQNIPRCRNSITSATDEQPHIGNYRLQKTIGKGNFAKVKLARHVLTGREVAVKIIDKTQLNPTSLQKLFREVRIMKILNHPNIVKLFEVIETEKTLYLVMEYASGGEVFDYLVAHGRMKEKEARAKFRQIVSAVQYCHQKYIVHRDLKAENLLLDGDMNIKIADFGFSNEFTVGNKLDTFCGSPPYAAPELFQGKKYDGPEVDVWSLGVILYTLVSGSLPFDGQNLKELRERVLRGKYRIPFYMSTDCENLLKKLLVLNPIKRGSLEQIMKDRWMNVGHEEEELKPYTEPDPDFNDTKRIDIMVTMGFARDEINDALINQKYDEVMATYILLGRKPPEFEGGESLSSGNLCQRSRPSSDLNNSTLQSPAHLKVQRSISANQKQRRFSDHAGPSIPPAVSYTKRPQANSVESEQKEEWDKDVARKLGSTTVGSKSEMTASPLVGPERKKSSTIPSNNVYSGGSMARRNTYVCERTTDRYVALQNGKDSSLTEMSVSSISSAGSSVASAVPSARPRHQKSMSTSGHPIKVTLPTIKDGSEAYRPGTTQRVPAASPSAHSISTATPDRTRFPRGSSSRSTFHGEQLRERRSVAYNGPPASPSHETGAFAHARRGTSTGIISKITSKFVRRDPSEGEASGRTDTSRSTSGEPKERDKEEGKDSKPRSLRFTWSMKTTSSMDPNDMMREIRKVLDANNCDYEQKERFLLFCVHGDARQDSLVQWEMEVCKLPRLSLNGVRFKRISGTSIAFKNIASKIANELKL
# PAK2(h), sequence (Q13177 whole entry): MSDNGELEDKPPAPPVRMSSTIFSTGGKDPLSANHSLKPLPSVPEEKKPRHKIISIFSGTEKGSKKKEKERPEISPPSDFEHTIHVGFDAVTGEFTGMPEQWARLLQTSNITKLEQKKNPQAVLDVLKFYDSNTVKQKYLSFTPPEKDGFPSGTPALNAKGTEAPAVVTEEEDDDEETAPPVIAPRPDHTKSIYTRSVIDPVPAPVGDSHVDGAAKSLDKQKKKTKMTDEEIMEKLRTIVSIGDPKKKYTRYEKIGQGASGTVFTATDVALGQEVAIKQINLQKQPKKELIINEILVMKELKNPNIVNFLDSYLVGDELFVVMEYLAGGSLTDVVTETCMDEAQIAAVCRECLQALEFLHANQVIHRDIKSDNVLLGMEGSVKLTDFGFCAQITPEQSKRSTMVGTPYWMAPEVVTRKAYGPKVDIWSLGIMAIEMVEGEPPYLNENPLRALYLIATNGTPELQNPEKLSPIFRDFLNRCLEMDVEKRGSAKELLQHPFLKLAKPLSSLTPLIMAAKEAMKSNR
Binder,"% activity, 100 µM (NLK(h)) [%]","% activity, 100 µM (PAK2(h)) [%]","% activity, 100 µM (ARK5(h)) [%]","% activity, 100 µM (EGFR(h)) [%]","% activity, 100 µM (MARK1(h)) [%]","% activity, 100 µM (LKB1(h)) [%]","% activity, 100 µM (GRK7(h)) [%]","% activity, 100 µM (PKCα(h)) [%]","% activity, 100 µM (NEK7(h)) [%]"
B1,87,65,78,21,132,101,122,89,84
B2,90,59,69,16,120,89,100,86,87
